Data published in US20150273076A1, “SP1 POLYPEPTIDES, MODIFIED SP1 POLYPEPTIDES AND USES THEREOF” (Fulcrum SP Ltd., priority 2006, published 2015).

What was measured:
[1] = tested on: proteinase K or alkalase; experiment: Protease resistance by SDS PAGE; assay type: physicochemical; settings: V8 protease, similar with trypsin, subtilysine
Procedure: Protease Susceptibility Examination of SP1—SP1 (10 μg) prepared either in V8 protease digestion buffer (125 mM Tris-HCl, pH 6.8, 10% glycerol, 0.5% SDS) or standard buffer (20 mM Tris-HCl, pH 7.5, 1 mM EDTA, 50 mM NaCl), was boiled for 2 min or not boiled prior the addition of protease (Staphylococcus aureus V8 protease, trypsin, proteinase K, Sigma Chemicals Inc., Israel). Proteases were added to a final concentration of 50 μg/ml (SP1: protease equal to 1:20, w/w). The digestion was performed at 37° C. for 1 hr. The samples were then prepared in SDS sample buffer, and boiled or not before being subjected to 17% tricine-SDS-PAGE.
SP1 is vulnerable to V8 protease or subtilysine (alcalase, Novo Industries) digestion when disassociated to its monomeric form (boiled in 0.5% SDS, or dissolved inclusion bodies). […] When the oligomer-protease mixture was further boiled in SDS sample buffer, only the SP1 monomer was observed and no peptide fragment was detected on the gel. When the same mixture was subjected to SDS-PAGE analysis without boiling, an intact complex was observed. […] Thus, whereas properly folded SP1 protein is protease resistance, unfolded protein, susceptible to protease, can be removed by protease and heat treatment (FIG. 5).

[2] = SP1 stability following exposure to SDS and heating; assay type: physicochemical
Procedure: The stability of the SP1 complex in the presence of SDS was examined by incubating purified SP1 with SDS at different molar ratios and at different temperatures. Dissociation of the SP1 complex to monomers required a molar ratio greater than 600:1 (SDS:SP1-monomer) accompanied by boiling before loading onto the gel.

[3] = Fluorescein-amine complex formation (ultrafiltration, size exclusion HPLC); assay type: binding
Procedure: FIG. 9 is a histogram showing redox-dependent complex formation with small molecules by Cys2 SP1. Pure Cys 2 mutant (1.5 mg/ml in Phosphate buffered saline, pH=7.5 (PBS)) was incubated for 2 hours at room temp, with I mM fluorescein-amine with or without glutathione (reduced form, GSH 3 mM). Binding reaction was stopped by adding hydrogen peroxide (0.01%), followed by ultra filtration (using a 30 kD cutoff filter) and extensive wash. Absorption analysis was conducted at both 278 and 492 nm, and the results expressed as the 492/278 ratio. Note that in the absence of the reducing agent (GSH), retention of the flourescein-amine is negligible;
FIG. 10 is a graphic representation of the redox-dependent fluorescein amine complex formation by Cys2 SP1, compared to the recombinant SP1. Fluorescein-amine was incubated with pure SP1 or Cys2 SP1 mutant (1.5 mg/ml in PBS pH=7.5) in the absence or presence of DTT (10 mM). Binding reaction was stopped by adding hydrogen peroxide (0.01%), followed by ultra filtration (using 30 kD cutoff filter) and extensive wash. Samples were analyzed by Gel filtration HPLC, and detected at both 228 and 490 nm. Calculated data is shown on the right.
FIG. 11 is a histogram illustrating the concentration dependent complex formation with fluorescein-amine by Cys2 SP1. Huorescien-amine (10, 33, 100 or 333 mM) was incubated with Cys 2 SP1 or pure wild type SP1 in the presence of 10 mM DTT, and the bound and unbound fractions analyzed by ultra-filtration and HPLC as in FIG. 10.
Ultrafiltration was used for the detection of complex formation with the water soluble ligands FA and DOX which have a distinctive absorption properties and can be determined by spectroscopic measurements. […] Several additional washing cycles remove all remaining free FA and DOX, and the ligand-SP1 complex remains in the retained fraction.
Size exclusion chromatography is a common method for separation of molecules of different sizes under mild conditions and was employed to test FA and DOX complex formation under mild conditions. SP1 is eluted from the column after 7 min and is detected at 278 nm only, and free FA is eluted from the column (TSK G3000 SWXL, Tosohaas) after 16 min and is detected at 490 nm. The SP1-FA and SP1-DOX complexes also eluted at the same time but is detected also at 490 and 475 nm, respectively. DOX/SP1 ratio is determine from the standard curve obtained in solution.
5. Can complexed ligand be stabilized by association with the Cys2 SP1? Fluoresceine amine (FA): FA absorption peak is at 490 nm and at much lower extend at 278 nm (for a given FA concentration OD278/OD490=0.19)(see FIG. 31), when SP1 absorption peak is at 278 nm (see FIG. 30), and it is not detected at 490 nm. […] FA complexing with the Cys2 Sp1 variant was determined following incubation of FA and Cys2 SP1 variant in the absence or presence of GSH, followed by protein oxidation, ultra filtration (30 kDa cutoff) and exhaustive wash of the retained fraction with PBS with or without GSH. Absorption analysis at both 278 and 490 nm.

## wild type: stress related SP1 protein from aspen (Populus tremula), recombinant, SEQ ID NO:1
[1]
  digestion of the intact oligomer by protease: unable to digest the intact oligomer
[2]; 1734-fold SDS (1%), temperatures of 80° C. or lower
  disassociation of the complex: did not cause significant disassociation of the complex
[2]; accompanied by boiling before loading onto the gel
  molar ratio (SDS:SP1-monomer) required for dissociation of the complex to monomers: greater than 600
[2]; without boiling, SDS ratio of 3467 to 1
  state of SP1 on SDS-PAGE: remained as a complex
[3]; 10 μM FA, 10 mM DTT
  FA complexing at low ligand concentration: no discernable FA complexing
[3]; presence or absence of reducing agents, size exclusion chromatography
  complex formation with the FA marker: hardly forms complexes
